Test results as given in publication PMC7367838, “Engineered CRISPR/Cas9 enzymes improve discrimination by slowing DNA cleavage to allow release of off-target DNA”.
Numbering of substitutions follows the chain as printed.

B1: sgRNA + on-target 55-bp DNA (mixed)
RNA: GACGCAUAAAGAUGAGACGCGUUUUAGAGCUAUGCUGUUUUGGAAACAAAACAGCAUAGCAAGUUAAAAUAAGGCUAGUCCGUUAUCAACUUGAAAAAGUGGCACCGAGUCGGUGCUUUUUUUGGAUC
DNA 1: AGCTGACGTTTGTACTCCAGCGTCTCATCTTTATGCGTCAGCAGAGATTTCTGCT
DNA 2: AGCAGAAATCTCTGCTGACGCATAAAGATGAGACGCTGGAGTACAAACGTCAGCT
B2: sgRNA + off-target 55-bp DNA (3-bp PAM-distal mismatch) (mixed)
RNA: B1 RNA
DNA 1: B1 DNA 1 with G37C, T38A, C39G
DNA 2: B1 DNA 2 with G17C, A18T, C19G

How the values were obtained:
Details in all cases: protein: recombinant; tags: His6-MBP removed by TEV; label: 32P or 6-FAM for cleavage; tCo (position not in material) for unwinding; guide RNA (S25+S26 joined) / target strand / non-target strand; DNA duplex blunt
SpCas9 [1] = molecular target: T1, SpCas9 (Streptococcus pyogenes, UniProt Q99ZW2 1-1368); test: stopped-flow and cleavage kinetics, global fit; 1/K1, initial binding step; bracketed value, footnote 3 not in material, may be fixed or from earlier work; Reaction buffer, salt, pH and temperature not in the material; Mg2+ added to start cleavage, omitted for pre-equilibration
SpCas9 [2] = molecular target: T1, SpCas9; test: stopped-flow and cleavage kinetics, global fit; Kd,net including R-loop formation; bracketed value, footnote 3 not in material, may be fixed or from earlier work; Reaction buffer, salt, pH and temperature not in the material; Mg2+ added to start cleavage, omitted for pre-equilibration
SpCas9 [3] = molecular target: T1, SpCas9; test: stopped-flow and cleavage kinetics, global fit; 1/K1, initial binding step; Reaction buffer, salt, pH and temperature not in the material; Mg2+ added to start cleavage, omitted for pre-equilibration
SpCas9 [4] = molecular target: T1, SpCas9; test: stopped-flow and cleavage kinetics, global fit; Kd,net including R-loop formation; Reaction buffer, salt, pH and temperature not in the material; Mg2+ added to start cleavage, omitted for pre-equilibration

T1 sequence (Q99ZW2 whole entry): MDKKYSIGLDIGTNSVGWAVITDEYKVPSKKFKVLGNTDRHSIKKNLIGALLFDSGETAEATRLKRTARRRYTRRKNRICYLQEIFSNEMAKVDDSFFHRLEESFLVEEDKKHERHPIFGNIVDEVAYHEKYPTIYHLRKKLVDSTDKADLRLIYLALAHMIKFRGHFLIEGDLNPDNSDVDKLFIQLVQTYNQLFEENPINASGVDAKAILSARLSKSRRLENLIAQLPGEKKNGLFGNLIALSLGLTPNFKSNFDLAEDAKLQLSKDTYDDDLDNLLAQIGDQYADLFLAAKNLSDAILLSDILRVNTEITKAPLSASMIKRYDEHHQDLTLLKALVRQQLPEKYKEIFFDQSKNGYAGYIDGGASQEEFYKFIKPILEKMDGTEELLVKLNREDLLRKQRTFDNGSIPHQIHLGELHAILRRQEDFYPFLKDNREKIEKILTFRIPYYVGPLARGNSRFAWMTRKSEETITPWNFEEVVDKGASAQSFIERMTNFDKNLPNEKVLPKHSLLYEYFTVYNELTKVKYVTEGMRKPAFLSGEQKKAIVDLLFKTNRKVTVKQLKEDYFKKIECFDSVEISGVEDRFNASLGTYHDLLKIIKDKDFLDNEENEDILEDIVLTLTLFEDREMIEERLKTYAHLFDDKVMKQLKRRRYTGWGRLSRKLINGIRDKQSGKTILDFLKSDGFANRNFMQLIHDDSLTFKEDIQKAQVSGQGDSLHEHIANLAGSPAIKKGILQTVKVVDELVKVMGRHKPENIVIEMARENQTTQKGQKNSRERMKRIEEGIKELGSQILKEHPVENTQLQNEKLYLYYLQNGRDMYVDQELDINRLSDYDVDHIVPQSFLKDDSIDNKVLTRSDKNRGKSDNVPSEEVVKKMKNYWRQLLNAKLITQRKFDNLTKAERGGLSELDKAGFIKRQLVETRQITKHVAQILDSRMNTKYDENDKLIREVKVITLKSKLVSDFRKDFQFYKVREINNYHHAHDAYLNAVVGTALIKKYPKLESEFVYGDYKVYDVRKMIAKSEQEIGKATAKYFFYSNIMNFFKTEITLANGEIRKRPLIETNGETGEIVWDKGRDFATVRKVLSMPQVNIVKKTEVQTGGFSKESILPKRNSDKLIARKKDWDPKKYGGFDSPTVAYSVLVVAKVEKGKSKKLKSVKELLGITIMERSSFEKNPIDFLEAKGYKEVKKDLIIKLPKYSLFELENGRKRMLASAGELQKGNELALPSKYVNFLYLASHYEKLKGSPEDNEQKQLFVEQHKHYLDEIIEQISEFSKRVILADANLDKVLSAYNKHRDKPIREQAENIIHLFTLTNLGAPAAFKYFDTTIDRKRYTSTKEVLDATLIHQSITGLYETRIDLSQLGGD

Binder | Kd (SpCas9 [1]) [nM] | Kd (SpCas9 [2]) [nM] | Kd (SpCas9 [3]) [nM] | Kd (SpCas9 [4]) [nM]
B1 | 3 | 1 |  | 
B2 |  |  | 24 | 8.1
